B1: PSTPIP: murine PST Phosphatase Interacting Protein, 415 residues (SEQ ID NO:1) (protein)
chain: MMAQLQFRDAFWCRDFTAHTGYEVLLQRLLDGRKMCKDVEELLRQRAQAEERYGKELVQIARKAGGQTEMNSLRTSFDSLKQQTENVGSAHIQLALALREELRSLEEFRERQKEQRKKYEAIMDRVQKSKLSLYKKTMESKKAYDQKCRDADDAEQAFERVSANGHQKQVEKSQNKAKQCKESATEAERVYRQNIEQLERARTEWEQEHRTTCEAFQLQEFDRLTILRNALWVHCNQLSMQCVKDDELYEEVRLTLEGCDVEGDINGFIQSKSTGREPPAPVPYQNYYDREVTPLIGSPSIQPSCGVIKRFSGLLHGSPKTTPSAPAASTETLTPTPERNELVYASIEVQATQGNLNSSAQDYRALYDYTAQNSDELDISAGDILAVILEGEDGWWTVERNGQRGFVPGSYLEKL
modifications: Mus Musculus
B2: W232A mutant of PST PIP, C-terminal FLAG (other)
chain: MMAQLQFRDAFWCRDFTAHTGYEVLLQRLLDGRKMCKDVEELLRQRAQAEERYGKELVQIARKAGGQTEMNSLRTSFDSLKQQTENVGSAHIQLALALREELRSLEEFRERQKEQRKKYEAIMDRVQKSKLSLYKKTMESKKAYDQKCRDADDAEQAFERVSANGHQKQVEKSQNKAKQCKESATEAERVYRQNIEQLERARTEWEQEHRTTCEAFQLQEFDRLTILRNALAVHCNQLSMQCVKDDELYEEVRLTLEGCDVEGDINGFIQSKSTGREPPAPVPYQNYYDREVTPLIGSPSIQPSCGVIKRFSGLLHGSPKTTPSAPAASTETLTPTPERNELVYASIEVQATQGNLNSSAQDYRALYDYTAQNSDELDISAGDILAVILEGEDGWWTVERNGQRGFVPGSYLEKLDYKDDDDK
notes: In vitro translated or expressed in COS cells; also called W232A PST PIP; PST PIP with an alanine replacement mutation at tryptophan232

Experiments:
3T3 cells = experiment: Overexpression of PSTPIP in transfected 3T3 cells, confocal microscopy; type: cell-based, murine; conditions: overexpression under cytomegalovirus promoter
Description: Rabbit polyclonal antibodies were produced against a GST-PSTPIP fusion protein. The complete PSTPIP-GST fusion protein was purified on GSH-sepharose and injected intramuscularly at 2 sites with 200 μg fusion protein and subcutaneously at multiple sites with a total of 300 μg PSTPIP-GST fusion protein in Complete Freunds Adjuvant. Rabbits were boosted every 3 weeks with 100 μg fusion protein in Incomplete Freunds. 15 ml of rabbit sera was reacted with 0.5 mg PSTPIP-GST-GSH-Sepharose for 3 hours at 4° C. with gentle rotation. The resin was collected by centrifugation and washed with 10 column volumes of PBS. Immunoglobulin was eluted from the affinity matrix with 100 mM acetic acid, 500 mM NaCl, neutralized with NaOH, and then dialyzed overnight with PBS. NIH 3T3 cells were seeded at 100,000 cells per chamber slide and allowed to adhere overnight. The cells were transfected using Lipofectamine™ (2 ug pRK.PIP.FLAG.C/12 ul Lipofectamine in 0.8 ml OPTI-MEM) for 5 hours. The DNA/Lipofectamine™ solution was removed and fresh serum containing medium added. […] Cells were stained with 0.4 μg/ml rabbit anti-PIP or 0.4 μg/ml rabbit IgG and detected with Cy3-corjugated goat anti-rabbit. […]

[1] = target: T1, full-length PTP HSCF with an N-terminal hemagglutinin epitope tag (UniProt Q61152 1-453); experiment: co-immunoprecipitation from co-transfected COS cells
T1 construct: range 1-453; In vitro translated or expressed in COS cells; also called the phosphatase; wild type PTP HSCF
T1 sequence (looked up): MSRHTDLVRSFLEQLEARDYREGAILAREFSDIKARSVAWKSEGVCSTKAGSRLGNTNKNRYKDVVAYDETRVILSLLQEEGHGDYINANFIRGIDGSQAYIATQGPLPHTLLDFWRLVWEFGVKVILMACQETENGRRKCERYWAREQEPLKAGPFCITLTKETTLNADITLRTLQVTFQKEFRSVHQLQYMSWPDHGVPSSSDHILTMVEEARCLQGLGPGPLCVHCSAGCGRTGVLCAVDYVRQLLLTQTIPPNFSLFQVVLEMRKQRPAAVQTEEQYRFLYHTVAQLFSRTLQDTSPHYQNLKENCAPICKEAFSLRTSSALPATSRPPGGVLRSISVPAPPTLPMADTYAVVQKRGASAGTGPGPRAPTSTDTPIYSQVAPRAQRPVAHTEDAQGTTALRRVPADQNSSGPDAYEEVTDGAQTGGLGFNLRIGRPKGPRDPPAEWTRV
Description: The resultant precipitates were resolved on SDS polyacrylamide gels and probed with anti-FLAG antibody (to detect PST PIP), anti-HA antibody (to detect PTP HSCF) and anti-pY (anti-phosphotyrosine antibody) to detect this modified residue on these proteins. Note that the $W232A$ mutant of PST PIP is neither coprecipitated with PTP HSCF nor is it "substrate trapped" (as determined by hyperphosphorylation) by the dominant negative (C-S) form of PTP HSCF, while the wild type form of the protein (PST PIP wt) is found in a complex with precipitated PTP HSCF and is hyperphosphorylated ("substrate trapped" (Jia et al., *Science* 268(5218):1754–1758 (1995); Garton et al., *Mol. Cell. Biol.* 16(11):6408–6418 (1996); Flint et al., *Proc. Natl. Acad. Sci. USA* 94(5):1680–1685 (1997); Spencer et al. (1997), supra)) by dominant negative (C-S) PTP HSCF.
In vitro binding analyses between various PTP HSCF and PST PIP constructs were performed as previously described (Spencer et al, (1997), supra). Briefly, plasmids were transcribed and translated in vitro using the TnT Rabbit Reticulocyte Lysate System (Promega). […] Samples were than reacted with GST fusion proteins at various concentrations, and the bound proteins were centrifuged using glutathione-sepharose beads and analyzed on SDS polyacrylamide gels. […]

Row | Molecule | cell morphology on overexpression (3T3 cells) | binding result [1]
1 | B1 | induced a remarkable morphological change in a high percentage of cells | 
2 | B2 |  | no binding
